The values that follow come from PMC12804927.

The target in this series is T1, GFP-UTP15 IDR (UniProt Q8C7V3 314-528).
T1 sequence: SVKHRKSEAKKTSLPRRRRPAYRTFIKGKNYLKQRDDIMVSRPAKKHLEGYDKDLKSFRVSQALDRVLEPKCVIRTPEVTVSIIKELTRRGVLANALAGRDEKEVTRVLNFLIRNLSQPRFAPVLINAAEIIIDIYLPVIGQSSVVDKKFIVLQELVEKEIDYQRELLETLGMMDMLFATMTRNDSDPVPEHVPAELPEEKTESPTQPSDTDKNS
In words: EMSA. Background: In EMSA bound probe runs differently from free probe, usually more slowly.

Consider UCGUGUCUCGCUUGACCAUGUUCCCAGAGUCGGUGGAUGU (ssRNA) [5'ETS RNA probe], for which the binding result is on record as “binds”.
